# Assay results published in PMC4029989, “Selection of a Novel DNA Aptamer for Assay of Intracellular Interferon-Gamma”.
# B1: B1-4 (ssDNA)
# DNA: CCGCCCAAATCCCTAAGAGAAGACTGTAATGACATCAAACCAGACACACTACACACGCA
# B2: T2 (ssDNA)
# DNA: GGGGTTGGTTGTGTTGGGTGTTGTGT
# B3: A2 (ssDNA)
# DNA: TGCCCGTGTCCCGAGGAGGTGCCCTATTTTGCTTGATTATCTCTAAGGGATTTGGGCGG
# Tests used:
# [1] = target: T1, Interferon-gamma (IFN-γ) (Homo sapiens, UniProt P01579 24-161); experiment: flow cytometry bead binding; binding buffer (PBS), room temperature, blank-bead signal subtracted; PBS binding buffer (SELEX with 0.1 mg/mL salmon sperm DNA and 1 mg/mL BSA, 37 °C); Kd assay on beads in binding buffer, room temperature, 30 min; pH not stated; conditions: protein: commercial; chain copies: 2; label: FITC
# [2] = target: T1, Interferon-gamma (IFN-γ); experiment: flow cytometry bead binding; PBS binding buffer (SELEX with 0.1 mg/mL salmon sperm DNA and 1 mg/mL BSA, 37 °C); Kd assay on beads in binding buffer, room temperature, 30 min; pH not stated; conditions: protein: commercial; chain copies: 2; label: FITC
# [3] = target: Bovine serum albumin (BSA) (Bos taurus, UniProt P02769 25-607); experiment: flow cytometry bead binding; bound albumin to a large degree; PBS binding buffer (SELEX with 0.1 mg/mL salmon sperm DNA and 1 mg/mL BSA, 37 °C); Kd assay on beads in binding buffer, room temperature, 30 min; pH not stated; conditions: protein: commercial; label: FITC
# [4] = target: Interferon-gamma, intracellular (Homo sapiens, UniProt P01579 24-161); experiment: flow cytometry of fixed permeabilized cells; 0.05 pM aptamer; no correlation with stimulated cells; PBS binding buffer (SELEX with 0.1 mg/mL salmon sperm DNA and 1 mg/mL BSA, 37 °C); Kd assay on beads in binding buffer, room temperature, 30 min; pH not stated; conditions: protein: native; chain copies: 2
# Interferon-gamma, intracellular, sequence (P01579 24-161): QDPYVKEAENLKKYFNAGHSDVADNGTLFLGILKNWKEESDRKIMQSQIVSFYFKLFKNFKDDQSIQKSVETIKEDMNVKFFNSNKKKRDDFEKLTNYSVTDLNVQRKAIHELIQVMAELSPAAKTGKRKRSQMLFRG
# T1 sequence (P01579 24-161): as above
# Bovine serum albumin (BSA), sequence (P02769 25-607): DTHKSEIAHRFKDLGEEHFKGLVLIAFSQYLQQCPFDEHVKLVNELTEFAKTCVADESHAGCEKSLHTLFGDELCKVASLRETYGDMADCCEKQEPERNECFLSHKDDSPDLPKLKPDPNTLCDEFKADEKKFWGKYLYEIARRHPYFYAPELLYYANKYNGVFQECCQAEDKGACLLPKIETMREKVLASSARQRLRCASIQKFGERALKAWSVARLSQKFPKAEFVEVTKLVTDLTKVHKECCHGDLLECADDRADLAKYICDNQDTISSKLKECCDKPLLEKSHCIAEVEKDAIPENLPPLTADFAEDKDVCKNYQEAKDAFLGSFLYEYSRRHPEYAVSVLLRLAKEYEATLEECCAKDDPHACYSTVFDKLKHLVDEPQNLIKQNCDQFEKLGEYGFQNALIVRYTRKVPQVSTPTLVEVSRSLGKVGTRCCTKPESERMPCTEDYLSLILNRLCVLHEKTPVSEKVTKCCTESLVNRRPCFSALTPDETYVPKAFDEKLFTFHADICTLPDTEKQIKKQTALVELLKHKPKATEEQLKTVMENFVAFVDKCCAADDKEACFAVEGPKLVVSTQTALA
binder,measurement,setting,value
B1,Kd,[1],74.5 nM
B2,binding result,[2],binds
same,binding result,[3],binds
B3,binding result,[4],no binding
